Measured values as given in patent publication US20240102068A1, “C-GLYCOSYLTRANSFERASE VARIANTS AND USE THEREOF” (KOREA ADVANCED INSTITUTE OF SCIENCE AND TECHNOLOGY, priority 2021, published 2024).
Substitutions are numbered along the chain they refer to. Numbers in names are those of the source. Entries after “also recorded” stand apart in the source; their conditions may differ.

B1: GtCGT: wild-type C-glycosyltransferase GtUF6CGT1 from Gentiana triflora (SEQ ID NO: 1) (protein, listed as Gentiana triflora)
chain: MGSLTNNDNLHIFLVCFIGQGVVNPMLRLGKAFASKGLLVTLSAPEIVGTEIRKANNLNDDQPIKVGSGMIRFEFFDDGWESVNGSKPFDVWVYINHLDQTGRQKLPIMLKKHEETGTPVSCLILNPLVPWVADVADSLQIPCATLWVQSCASFSAYYHYHHGLVPFPTESEPEIDVQLPGMPLLKYDEVPDYLHPRTPYPFFGTNILGQFKNLSKNFCILMDTFYELEHEIIDNMCKLCPIKPIGPLFKIPKDPSSNGITGNFMKVDDCKEWLDSRPTSTVVYVSVGSVVYLKQEQVTEMAYGILNSEVSFLWVLRPPSKRIGTEPHVLPEEFWEKAGDRGKVVQWSPQEQVLAHPATVGFLTHCGWNSTQEAISSGVPVITFPQFGDQVTNAKFLVEEFKVGVRLGRGELENRIITRDEVERALREITSGPKAEEVKENALKWKKKAEETVAKGGYSERNLVGFIEEVARKTGTK
B2: ZmCGT: UGT708A6 from Zea mays which acts as a dual C/O-glycosyltransferase (protein, UniProt A0A096SRM5 1-475, looked up)
UDP-glycosyltransferase 708A6: MAANGGDHTSARPHVVLLPSAGMGHLVPFARLAVALSEGHGCNVSVAAVQPTVSSAESRLLDALFVAAAPAVRRLDFRLAPFDESEFPGADPFFLRFEATRRSAPLLGPLLDAAEASALVTDIVLASVALPVARERGVPCYVLFTSSAAMLSLCAYFPAYLDAHAAAGSVGVGVGNVDIPGVFRIPKSSVPQALHDPDHLFTQQFVANGRCLVACDGILVNTFDAFEPDAVTALRQGSITVSGGFPPVFTVGPMLPVRFQAEETADYMRWLSAQPPRSVVYVSFGSRKAIPRDQLRELAAGLEASGKRFLWVVKSTIVDRDDTADLGGLLGDGFLERVQGRAFVTMGWVEQEEILQHGSVGLFISHCGWNSLTEAAAFGVPVLAWPRFGDQRVNAALVARSGLGAWEEGWTWDGEEGLTTRKEVAKKIKGMMGYDAVAEKAAKVGDAAAAAIAKCGTSYQSLEEFVQRCRDAERK
B3: GtCGT^V93Q (protein)
chain: B1 chain with V93Q
B4: Y193F (protein, listed as Gentiana triflora)
chain: B1 chain with Y193F
B5: L164G: GtCGT single mutant L164G (protein, listed as Gentiana triflora)
chain: B1 chain with L164G
B6: F17G (protein, listed as Gentiana triflora)
chain: B1 chain with F17G
B7: R322D (protein, listed as Gentiana triflora)
chain: B1 chain with R322D
B8: V132A (protein, listed as Gentiana triflora)
chain: B1 chain with V132A
B9: GtCGT V93Q/Y193F/I323S: GtCGT^V93Q/Y193F with additional I323S (Table 10 No. 12) (protein, listed as Gentiana triflora)
chain: B1 chain with V93Q, Y193F, I323S
B10: GtCGT V93Q/Y193F/P385A: GtCGT^V93Q/Y193F with additional P385A (Table 12 No. 15) (protein, listed as Gentiana triflora)
chain: B1 chain with V93Q, Y193F, P385A

Tests used:
FK = test: dcII production from FK by C-glycosyltransferase candidates and GtCGT mutants in FK-producing E. coli, flask culture; assay type: cell-based; conditions: for dcII production: FK-producing E. coli strain; for KA production compared with wild-type GtCGT: mutants transformed into FK strains
Protocol: Flask culture was carried out under the following conditions. Colonies were seeded into 10 mL of LB medium supplemented with appropriate concentrations of antibiotics, followed by culture overnight at 37° C. The culture fluid thus prepared was passaged into a 250 mL baffled flask containing 50 mL of R/2 medium supplemented with 3 g/L yeast extract and 20 g/L glucose (with 0.45 g/L ascorbic acid if necessary), followed by culture at 30° C. and 200 rpm. The composition of R/2 medium (pH 6.8) was as follows (per liter): 2 g of (NH4)2HPO4, 6.75 g of KH2PO4, 0.85 g of citric acid, 0.7 g of MgSO4·7H2O, and 5 ml of trace metal solution (TMS) [10 g of FeSO4·7H2O, 2.25 g of ZnSO4·7H2O, 1 g of CuSO4·5H2O, 0.5 g of MnSO4·5H2O, 0.23 g of Na2B4O7·10H2O, 2 g of CaCl2·2H2O, and 0.1 g of (NH4)6Mo7O24 per liter of 5 M HCl]. When OD600 of the culture fluid reached 0.6-0.8, 1 mM isopropyl β-D-1-thiogalactopyranoside (IPTG) was added to induce exogenous gene expression, followed by culture for 48 hours.
After culture, production analysis was performed under the following conditions. After flask culture, 50 mL of the culture fluid was centrifuged at 4,000 g for 30 minutes, and then the supernatant was desalted and concentrated. Here, Oasis HLB cartridges (Water) were used. The supernatant was concentrated 1-fold for FK, 30-fold for KA, 45-fold for dell, and 200-fold for carminic acid. The concentrated sample was re-dissolved in an appropriate volume of DMSO and impurities were then removed therefrom using a 0.22 μm PTFE filter. The prepared sample was analyzed by MS (LC/MSD VL; Agilent) coupled with HPLC (1100 series; Agilent). An Eclipse XDB-C18 column was used, 0.1% formic acid was used as buffer A, and methanol was used as buffer B. Analysis was performed in an ESI negative mode. For more accurate analysis of carminic acid, LC-MS/MS was performed using an HPLC Triple Quadrupole Mass Spectrometer (LCMS-8050, Shimadzu) (MRM mode).
Flask culture started by seeding colonies from LB agar plates into test tubes containing 10 mL of LB. As such, an appropriate concentration of antibiotics was added, followed by culture overnight at 37° C. at 220 rpm. 1 mL of the seed culture thus prepared was inoculated into a 250 mL baffled flask containing 50 mL of R/2 medium (supplemented with 3 g/L yeast extract and 20 g/L glucose), followed by culture at 30° C. and 200 rpm. The composition of R/2 medium was as follows (pH 6.8, per 1 L): 2 g of (NH4)2HPO4, 6.75 g of KH2PO4, 0.85 g of citric acid, 0.8 g of MgSO4·7H2O, and 5 ml of trace metal solution (TMS). The composition of TMS was as follows (based on 0.1 M HCl, per 1 L): 10 g of FeSO4·7H2O, 2.25 g of ZnSO4·7H2O, 1 g of CuSO4·5H2O, 0.58 g of MnSO4·5H2O, 0.02 g of Na2B4O7·10H2O, 2 g of CaCl2·2H2O, and 0.1 g of (NH4)6Mo7O24·4H2O. When OD600 of the culture fluid reached 0.6-0.8, 0.5 mM IPTG was added to induce exogenous enzyme expression, followed by culture for 48 hours. In all experiments for producing flavokermesic acid, kermesic acid, dcII, and carminic acid, 0.45 g/L of ascorbic acid was further added.
The production of carminic acid (CA) from FK was performed by two biosynthesis pathways, both of which require monooxygenase and C-glycosyltransferase. FK may be oxidized into KA or may be C-glycosylated into dcII. […] In order for the enzyme to have activity, however, it must be glycosylated, and since it also has a transmembrane helix and a signal peptide, successful expression in cells such as E. coli is considered difficult.
For the enzymes selected above, pCDF-DcCGT, pCDF-MiCGT, pCDF-SfCGT, pCDF-EnCGT, pCDF-OsCGT, pCDF-FeCGT, pCDF-GmCGT, pCDF-AvCGT, pCDF-AvCGT, pCDF-ZmCGT, and pCDF-GtCGT were constructed, and all genes except for the iroB gene amplified from genomic DNA of E. coli Nissle using the iroB_gib_F primer and the iroB_gib_R primer were artificially synthesized and inserted into the NdeI site of the pCDFDuet-1 plasmid using Gibson assembly. […]

aloesone = test: Aloesin production from aloesone by GtCGT and variants in E. coli BL21(DE3), flask culture; assay type: cell-based; conditions: for aloesin production increase: compared to conventional concentration of 0.3 μg/L (ALS strain with GtCGT^V93Q/Y193F); for aloesin production: variant on pCDF-RpALS-GtCGT plasmid (additional RpALS), with pWAS-anti-pabA, pRSF-RpALS, pBBR1-zwf
Protocol: Also, in LC-MS/MS for aloesin analysis, MS (Agilent 6550 iFunnel Q-TOF LC/MS System) coupled with ultra HPLC (UHPLC; 1290 Infinity II LC System; Agilent) was used. Here, an Eclipse-plus C18 column was used, and 0.1% formic acid was used as buffer A, and acetonitrile to which 0.1% formic acid was added was used as buffer B.
Thereafter, in order to test the production of aloesin, the pCDF-GtCGT or pCDF-GtCGT^V93Q/Y193F plasmid was transformed into the BL21(DE3) strain containing pWAS-anti-pabA, pRSF-RpALS, and pBBR1-zwf plasmids, followed by flask culture.
Similarly to the test for increased production of aloesone, RpALS was additionally introduced to increase aloesin production. To this end, pCDF-RpALS-GtCGT^V93Q/Y193F was constructed instead of introducing pCDF-GtCGT^V93Q/Y193F. Specifically, RpALS was amplified from pCDF-RpALS using pCDFDuet F and pCDFDuet R primers, and inserted into the NcoI and BamHI sites of the pCA plasmid through Gibson assembly. Thereafter, four plasmids, namely pRSF-RpALS, pCDF-RpALS-GtCGT^V93Q/Y193F, pWAS-anti-pabA, and pBBR1-zwf, were transformed into E. coli BL21(DE3), which was named an ALS strain.
(§1) Mutagenesis for a specific sequence was performed in the same manner as in Example 2. Here, plasmids containing gene mutants were constructed using pCDF-RpALS-GtCGT^V93Q/Y193F as a template and using primer pairs shown in Table 11 below. The plasmids thus constructed were transformed into the BL21 (DE3) strain along with three plasmids, namely pWAS-anti-pabA, pRSF-RpALS, and pBBR1-zwf, followed by flask culture under the same conditions as in Example 3 using the strains thus constructed. The concentration of aloesin produced was measured in an MRM mode of the HPLC Triple Quadrupole Mass Spectrometer (LCMS-8050, Shimadzu) of the KAIST Biocore Center.
as §1, with “13” for “11”

Molecule | dcII production from FK (in words) (FK; FK-producing E. coli) | KA production compared with wild-type GtCGT (FK; flask culture) | also measured
B1 | able to successfully convert FK into dell | – | dcII production (FK; flask culture): 0.13 mg CA eq/L; dcII production (FK; galU, pgm and ndk overexpressed): 0.30 mg CA eq/L
B2 | able to successfully convert FK into dell; also recorded: very small amount | – | main product from FK (FK; FK-producing E. coli): O-glycosylated FK
B3 | highest dcII production | higher KA production than wild-type GtCGT | dcII production increase compared to wild-type GtCGT (FK; FK strain, flask culture): about 2.9 fold
B4 | second highest concentration of dell | higher KA production than wild-type GtCGT | –
B5 | – | higher KA production than wild-type GtCGT | –
B6 | – | higher KA production than wild-type GtCGT | –
B7 | – | higher KA production than wild-type GtCGT | –
B8 | – | higher KA production than wild-type GtCGT | –
B9 | – | – | aloesin production increase (aloesone): ≥ 25.8 fold; aloesin production (aloesone): 7.75 µg/L
B10 | – | – | aloesin production increase (aloesone): ≥ 14.1 fold; aloesin production (aloesone): 4.23 µg/L
